Assay results as given in PMC9168836, “Clamping of DNA shuts the condensin neck gate” (Proceedings of the National Academy of Sciences of the …, 2021).

Legend:
[1] = target: T1, Ycg1 (budding yeast (S. cerevisiae), UniProt Q06680 1-1035); assay: cryo-EM structure; condensin pentamer (Smc2, Smc4, Brn1, Ycs4, Ycg1) with 80-bp dsDNA, 5 mM ADP, 1 mM BeSO4, 10 mM NaF in TNT buffer pH 7.5; separate maps of the clamped head module and of Ycg1-DNA; details: both partners purified
T1 construct: Ycg1, HAWK (HEAT repeat) subunit of budding yeast (S. cerevisiae) condensin
T1 sequence: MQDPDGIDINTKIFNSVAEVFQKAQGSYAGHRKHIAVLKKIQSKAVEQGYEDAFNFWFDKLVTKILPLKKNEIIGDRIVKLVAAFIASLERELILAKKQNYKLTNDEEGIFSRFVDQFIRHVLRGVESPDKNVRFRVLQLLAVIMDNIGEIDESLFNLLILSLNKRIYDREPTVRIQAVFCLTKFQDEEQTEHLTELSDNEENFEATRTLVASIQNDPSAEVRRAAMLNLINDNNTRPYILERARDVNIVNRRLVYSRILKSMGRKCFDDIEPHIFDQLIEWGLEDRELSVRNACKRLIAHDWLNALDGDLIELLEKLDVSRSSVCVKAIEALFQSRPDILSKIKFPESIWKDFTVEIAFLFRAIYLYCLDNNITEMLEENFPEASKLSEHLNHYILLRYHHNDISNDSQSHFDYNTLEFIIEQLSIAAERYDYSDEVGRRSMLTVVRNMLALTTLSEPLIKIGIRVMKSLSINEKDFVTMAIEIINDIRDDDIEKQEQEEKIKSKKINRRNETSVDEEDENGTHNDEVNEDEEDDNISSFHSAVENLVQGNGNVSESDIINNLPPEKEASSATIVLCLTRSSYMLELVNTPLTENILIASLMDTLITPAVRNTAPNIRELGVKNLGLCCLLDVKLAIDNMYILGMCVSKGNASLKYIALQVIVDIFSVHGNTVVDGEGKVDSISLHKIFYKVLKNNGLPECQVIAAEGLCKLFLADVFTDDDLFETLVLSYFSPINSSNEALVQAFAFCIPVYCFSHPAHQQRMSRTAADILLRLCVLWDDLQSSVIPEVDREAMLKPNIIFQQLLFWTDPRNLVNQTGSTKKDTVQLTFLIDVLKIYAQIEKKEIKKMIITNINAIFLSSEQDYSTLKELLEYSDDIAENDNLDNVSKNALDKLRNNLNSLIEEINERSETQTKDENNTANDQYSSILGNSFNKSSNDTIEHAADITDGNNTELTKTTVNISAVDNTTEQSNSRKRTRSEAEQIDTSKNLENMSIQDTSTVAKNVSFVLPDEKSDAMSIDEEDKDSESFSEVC

[2] = target: T2, Smc4-3xStrepII (budding yeast (S. cerevisiae), UniProt Q12267 1-1418); assay: as above; details: both partners purified
T2 construct: Smc4, SMC subunit of budding yeast (S. cerevisiae) condensin; only the head domain, proximal coiled coil and residues 126-144 are resolved in the maps; The tag's end is read from the plasmid's name SMC4-3xStrepII; also called Scm4
T2 sequence: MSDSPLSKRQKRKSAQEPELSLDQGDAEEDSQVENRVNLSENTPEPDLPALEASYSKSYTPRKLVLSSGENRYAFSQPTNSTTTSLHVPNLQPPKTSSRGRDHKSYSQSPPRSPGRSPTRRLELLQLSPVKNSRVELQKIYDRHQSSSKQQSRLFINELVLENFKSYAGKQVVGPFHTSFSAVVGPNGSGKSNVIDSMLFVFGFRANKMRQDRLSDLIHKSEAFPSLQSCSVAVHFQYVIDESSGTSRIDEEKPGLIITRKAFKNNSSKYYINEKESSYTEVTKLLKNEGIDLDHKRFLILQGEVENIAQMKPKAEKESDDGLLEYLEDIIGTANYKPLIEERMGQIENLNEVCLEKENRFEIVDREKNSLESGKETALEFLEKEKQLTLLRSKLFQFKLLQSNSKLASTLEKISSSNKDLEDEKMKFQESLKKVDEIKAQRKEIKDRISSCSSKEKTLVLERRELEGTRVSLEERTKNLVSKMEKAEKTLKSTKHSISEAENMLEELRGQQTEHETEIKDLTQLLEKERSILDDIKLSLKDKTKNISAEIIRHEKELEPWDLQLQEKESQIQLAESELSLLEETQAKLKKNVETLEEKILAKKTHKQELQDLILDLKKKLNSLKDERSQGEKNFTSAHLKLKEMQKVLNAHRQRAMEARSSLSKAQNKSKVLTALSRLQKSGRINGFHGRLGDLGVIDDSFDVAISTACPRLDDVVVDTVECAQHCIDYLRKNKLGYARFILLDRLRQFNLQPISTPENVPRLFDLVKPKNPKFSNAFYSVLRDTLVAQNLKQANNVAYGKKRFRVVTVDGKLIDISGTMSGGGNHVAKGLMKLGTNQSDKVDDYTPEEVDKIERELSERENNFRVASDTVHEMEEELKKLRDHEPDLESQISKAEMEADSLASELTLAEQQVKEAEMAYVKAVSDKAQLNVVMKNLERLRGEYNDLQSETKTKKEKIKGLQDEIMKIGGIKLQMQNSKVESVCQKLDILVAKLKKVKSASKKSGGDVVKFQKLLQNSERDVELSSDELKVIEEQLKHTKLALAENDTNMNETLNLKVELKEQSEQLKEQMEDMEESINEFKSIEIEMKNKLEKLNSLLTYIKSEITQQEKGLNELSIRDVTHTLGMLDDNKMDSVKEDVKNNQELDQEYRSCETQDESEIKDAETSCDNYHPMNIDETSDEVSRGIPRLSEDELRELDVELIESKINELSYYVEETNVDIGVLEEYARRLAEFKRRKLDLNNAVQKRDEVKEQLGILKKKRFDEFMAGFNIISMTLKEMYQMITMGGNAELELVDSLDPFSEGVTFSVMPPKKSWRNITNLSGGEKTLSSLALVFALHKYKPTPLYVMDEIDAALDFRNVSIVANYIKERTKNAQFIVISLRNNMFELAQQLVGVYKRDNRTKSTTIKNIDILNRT

binding result [1]: binds
binding result [2]: binds
B1: Brn1-HA3-His12 (natural protein, budding yeast (S. cerevisiae), UniProt P38170 1-754, looked up)
chain: MTTQLRYENNDDDERVEYNLFTNRSTMMANFEEWIKMATDNKINSRNSWNFALIDYFYDLDVLKDGENNINFQKASATLDGCIKIYSSRVDSVTTETGKLLSGLAQRKTNGASNGDDSNGGNGEGLGGDSDEANIEIDPLTGMPISNDPDVNNTRRRVYNRVLETTLVEFETIKMKELDQELIIDPLFKKALVDFDEGGAKSLLLNTLNIDNTARVIFDASIKDTQNVGQGKLQRKEEELIERDSLVDDENEPSQSLISTRNDSTVNDSVISAPSMEDEILSLGMDFIKFDQIAVCEISGSIEQLRNVVEDINQAKDFIENVNNRFDNFLTEEELQAAVPDNAEDDSDGFDMGMQQELCYPDENHDNTSHDEQDDDNVNSTTGSIFEKDLMAYFDENLNRNWRGREHWKVRNFKKANLVNKESDLLEETRTTIGDTTDKNTTDDKSMDTKKKHKQKKVLEIDFFKTDDSFEDKVFASKGRTKIDMPIKNRKNDTHYLLPDDFHFSTDRITRLFIKPGQKMSLFSHRKHTRGDVSSGLFEKSTVSANHSNNDIPTIADEHFWADNYERKEQEEKEKEQSKEVGDVVGGALDNPFEDDMDGVDFNQAFEGTDDNEEASVKLDLQDDEDHKFPIRENKVTYSRVSKKVDVRRLKKNVWRSINNLIQEHDSRKNREQSSNDSETHTEDESTKELKFSDIIQGISKMYSDDTLKDISTSFCFICLLHLANEHGLQITHTENYNDLIVNYEDLATTQAAS
notes: Brn1, kleisin subunit of budding yeast (S. cerevisiae) condensin; 754 residues as printed (279/754 traced in the head module map); The tags' end is read from the plasmid's name BRN1-HA3-His12; also called kleisin Brn1
